Test results from article PMC12142670.
pKd: −log10 of the molar value. Read-outs that look alike come from different tables or passages of the source. Blank lines part the entries; values can stand above or below the substance they belong to.

Tests used:
[1] = target: hinge-deleted human IgG4 anti-epidermal growth factor receptor (EGFR) antibody (IgG4Δhinge), L368A variant (human); assay: native MS; variable-temperature ESI native MS (vT-ESI-MS); 2.5 uM antibody in 150 mM ammonium acetate pH 7.5; continuous ramp from 30 to 100 °C at 2 °C/min; full noncovalent antibody to two half antibodies
[2] = target: hinge-deleted human IgG4 anti-epidermal growth factor receptor (EGFR) antibody (IgG4Δhinge), L368A variant (human); assay: as above; remark: listed apart in the source
[3] = target: IgG4 heavy chain CH3 (Homo sapiens) [IgG part: P01861]; details: cited from earlier work
[4] = target: hinge-deleted human IgG4 anti-epidermal growth factor receptor (EGFR) antibody (IgG4Δhinge), R409K variant (human); assay: native MS; variable-temperature ESI native MS (vT-ESI-MS); 2.5 uM antibody in 150 mM ammonium acetate pH 7.5; continuous ramp from 30 to 100 °C at 2 °C/min; full noncovalent antibody to two half antibodies

IgG4 heavy chain CH3, sequence (P01861 218-328): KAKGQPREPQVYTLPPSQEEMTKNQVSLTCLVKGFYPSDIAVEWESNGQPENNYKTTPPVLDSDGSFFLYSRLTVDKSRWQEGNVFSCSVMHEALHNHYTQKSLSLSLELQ

T1/2 (dissociation temperature of the full antibody into half antibodies) [1]: 52 °C
T1/2 (dissociation temperature of the full antibody into half antibodies) [2]: 53 °C
Substance: hinge-deleted human IgG4 anti-epidermal growth factor receptor (EGFR) antibody (IgG4Δhinge), L368A variant

Substance: IgG4 heavy chain CH3 (from UniProt P01861)
pKd [3]: 7.30

T1/2 (dissociation temperature of the full antibody into half antibodies) [4]: 77 °C
Substance: hinge-deleted human IgG4 anti-epidermal growth factor receptor (EGFR) antibody (IgG4Δhinge), R409K variant
